For this series, the target named is Mcm2WT-7 (Mcm2-7) (Saccharomyces cerevisiae, UniProt P29469;P24279;P30665;P29496;P53091;P38132 1-868;1-971;1-933;1-775;1-1017;1-845). Put plainly: EMSA. (In general: Mobility shift assays separate free from complexed probe on a gel.)

B1: poly-dT60 (ssDNA)
DNA: TTTTTTTTTTTTTTTTTTTTTTTTTTTTTTTTTTTTTTTTTTTTTTTTTTTTTTTTTTTT
Consider B1, for which the binding result was “binds”.
